Test results: patent publication US20220175977A1 (SORICIMED BIOPHARMA, published 2022)
Where no end group is shown, it is not given here.

Assays:
[1] = target: T1, TRPV6 (endogenous, in human cancer cell lines, tumour tissue and plasma) (human, UniProt Q9H1D0 1-765); assay: LNCaP model; method not described
T1 construct: whole, on cells; also called Transient Receptor Potential Vanilloid 6; TRPV6 channel
T1 sequence (looked up): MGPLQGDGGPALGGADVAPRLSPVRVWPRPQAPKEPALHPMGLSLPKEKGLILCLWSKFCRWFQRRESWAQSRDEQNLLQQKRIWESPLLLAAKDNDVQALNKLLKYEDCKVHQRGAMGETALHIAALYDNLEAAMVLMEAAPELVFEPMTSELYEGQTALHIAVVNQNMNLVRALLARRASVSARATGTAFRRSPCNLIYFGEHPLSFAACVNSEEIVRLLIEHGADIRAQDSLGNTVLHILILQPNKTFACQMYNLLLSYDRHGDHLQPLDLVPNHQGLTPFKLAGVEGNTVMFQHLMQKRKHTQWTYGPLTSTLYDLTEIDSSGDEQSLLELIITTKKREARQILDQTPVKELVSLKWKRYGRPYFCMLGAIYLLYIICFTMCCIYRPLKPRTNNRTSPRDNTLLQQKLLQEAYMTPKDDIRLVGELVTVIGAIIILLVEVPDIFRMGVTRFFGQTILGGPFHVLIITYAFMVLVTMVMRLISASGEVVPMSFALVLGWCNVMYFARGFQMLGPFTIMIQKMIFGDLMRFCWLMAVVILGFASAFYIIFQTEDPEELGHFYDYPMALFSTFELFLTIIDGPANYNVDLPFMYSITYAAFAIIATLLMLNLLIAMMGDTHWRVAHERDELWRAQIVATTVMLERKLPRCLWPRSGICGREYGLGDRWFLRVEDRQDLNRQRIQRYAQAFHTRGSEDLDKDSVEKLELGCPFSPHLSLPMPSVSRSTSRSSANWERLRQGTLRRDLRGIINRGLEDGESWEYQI

[2] = target: T1, TRPV6 (endogenous, in human cancer cell …); assay: fluorescence microscopy, SKOV-3 cells, not transfected (FIG. 9 A1-A3)

## EGKLSSNDTEGGLCKEFLHPSKVDLPR [SorC27]
[1]
  Kd: 140 nM

## KEFLHPSKVDLPR [SorC13]
[1]
  Kd: 100 nM

B1: SorC27-cy5.5 (peptide)
peptide: EGKLSSNDTEGGLC(Cy5.5)KEFLHPSKVDLPR
notes: also called SorC27-Cy5.5 compound; fluorescently labeled SorC27
[2]
  binding result: binds
